# Results reported in the RNAGym collection of RNA variant scans (doi:10.1073/pnas.2313332121).
# This sample holds only a part of the variants without activity.
# B1: TPR 5TU (parent)
# chain: GGAUCUUCUCGAUCUAACAAAAAAGACAAAUCUGCCACAAAGCUUGAGAGCAUCUUCGGAUGCAGAGGCGGCAGCCUUCGGUGGCGCGAUAGCGCCAACGUUCUCAACUAUGACACGCAAAACGCGUGCUCCGUUGAAUGGAGUUUAUCAUG
# Variants of: B1
# Assay: polymerase ribozyme fitness, log enrichment relative to wild type (log ratio); higher = more active; in vitro selection for triplet polymerase activity
# In short: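 Mutant libraries for each subunit of a heterodimeric triplet polymerase ribozyme were made by PCR and then transcribed. Each library underwent one round of in vitro selection in triplicate: annealing with a biotinylated primer, the partner subunit and triplets, frozen incubation at −7 °C, gel excision of extended constructs, streptavidin-bead capture and RT-PCR. Input and output libraries were Illumina-sequenced, and only genotypes with ≥10 input reads and ≥1 read per output were kept. Fitness is the logarithm, base 2, of genotype enrichment over wild-type enrichment, computed from inverse-variance-weighted replicate averages.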
row,Variant,polymerase ribozyme fitness (log ratio)
1,U7C C10U A40C C85A A89C G100A C116A,≤ -4.2
2,C8U G94A,-3.24
3,U7C G25U U31C G62C C75U G117U A122G,≤ -4.2
4,C8G C57A G84U C114U U148C A150C,≤ -4.2
5,U7G C96U C129U A137G,≤ -4.2
6,U7A G50A U78A C79G G86A C87A C99G A115U G141U,≤ -4.2
7,C8G A52U C95U U104G G140U,≤ -4.2
8,C8A U44C C79G G86C G140U,≤ -4.2
9,U7A A24G C32A G88C C99G U104G G140C,-4.07
10,C8A A30U C43G U144C,≤ -4.2
11,C8G C63U G68A G92A A107U A142G,≤ -4.2
12,U6G A26U G84C,-2.97
13,C8A G42U G50A G74U C95U,≤ -4.2
14,C8U A49U A52G,-3.79
15,U7G A20C U56G U146G,-3.82
16,C8G A28G U61A U104A A110U A120G A138C,≤ -4.2
17,U6G A26U C93U,-2.39
18,C8G A29U A41G U61A G68A U82C A89G C116U,≤ -4.2
19,U7A A29C A60U C76G C95U G133A G141A,≤ -4.2
20,U6A U53A G86A A91C G128C,≤ -4.2
21,C8G C10G C14G A41C G83U A119U G141C,≤ -4.2
22,U6G A20U C43U A47U G59A G65C A73C G88U C96A A142G,≤ -4.2
23,U6A C93G,-3.92
24,U6A C93U,-1.6

row,Variant,polymerase ribozyme fitness (log ratio)
1,C8U C87A,≤ -4.2
2,C8A C85A,-3.27
3,C8G A52G,-3.17
4,C8U A19G A39U C54U U61A G71A U77A G80C G88U G112C A113G C125G A150U,≤ -4.2
5,U6C G124C C129A,-4.16
6,U6A U13G C96A C105U,-2.15
7,U7C C27G C57G G88C G124A U134G,≤ -4.2
8,U7C C18G G25C A28U C38G U55A G70C G94C,≤ -4.2
9,C8U G67A U82G U90G C96A C105A C116A C125U U135A A147C U148G,≤ -4.2
10,U7G C27U G48C G59C C76U C79A G83U C93A,≤ -4.2
11,U6A U55G U139A,≤ -4.2
12,C8A A30U G71A U82G C95A C103G U134A G141U,≤ -4.2
13,U7C G50A A66G,≤ -4.2
14,U6G C18G C36U C96G A98G,-2.92
15,U7G A21U C54A A66C A91C G136A,≤ -4.2
16,U7C U53G G86C A106G A150C,≤ -4.2
17,C8U C79A G92A C105A,≤ -4.2
18,U6G A37G U53A G80U U90C C149A,≤ -4.2
19,U6G C43A A52C C85A A98U A113C,≤ -4.2
20,U6A C51A G58C C63G C93G U104G U145A U148C,≤ -4.2
21,U6G C14G A16C A20U A21U G42A U61A A64G G71A C85U C87U C129U G136A,≤ -4.2
22,U6C A22U A26U G84A U144A,-4.15
23,U6G U13G C14U A24C C76A G81U C87A,≤ -4.2
24,U7A U61A G62A G71C C103G,≤ -4.2

row,Variant,polymerase ribozyme fitness (log ratio)
1,C8G C36U C114U A115G U135G A150C,≤ -4.2
2,U7A C10G C32A U33A G50C G83U A91G U102C,≤ -4.2
3,U7A A22C A28C A60C G92A G143C A147G,≤ -4.2
4,C8G A41U A49C G62A C79U C85U C96U C114G A115G,≤ -4.2
5,C8A U31G U33G A40U C51U U77C C93G C108G C116U A147G,≤ -4.2
6,U7G C10U C35U A64G C96A C129A,≤ -4.2
7,U6G U31C U55A C95U A98G G141C,-1.61
8,C8A A20U G42C C43G U44A A113U A142C,≤ -4.2
9,U7C C27G C96U,≤ -4.2
10,U7G C75G G84A G141A,≤ -4.2
11,C8A C27U G70A C96U,≤ -4.2
12,C8G G50A A66C G84A,≤ -4.2
13,U7G G48A G59A A60G A97G,-3.81
14,U6G G46A A113U C125U G136U U146C,≤ -4.2
15,U6C A29U A41C G42U G59C C85U G100U A107G G124A,≤ -4.2
16,U6G A19G C38G C96A A106U,-3.84
17,C8U A20C A49G U53A C95A A106G C118G,≤ -4.2
18,C8U C93U C99G,≤ -4.2
19,C8A A26U,-3.66
20,U7C A41C C87U G126A,-3.82
21,U6G G88A,-4.11
22,C8G A24U G25U G80A C96G C125A,≤ -4.2
23,C8U A52U C54U G83A C118A U127G,≤ -4.2
24,U6G U45A C57U G67C C95G C99U,≤ -4.2

row,Variant,polymerase ribozyme fitness (log ratio)
1,U7G A19C A40G U56A A120G A150C,≤ -4.2
2,C8G U15C A52G C57G G59U C87G,-3.95
3,C8A U53A A73U G74U G92U A142U G143A,≤ -4.2
4,U7A U45G A49C G50C C87U C96A,≤ -4.2
5,U7A C18U,-3.45
6,U7C A16U G92C C116G,-3.77
7,C8A U15G C95U A98G C149U A150U,-4.06
8,C8U A24U U55G C69U G74U C87A A138U,≤ -4.2
9,U7G C93G U139A,≤ -4.2
10,U6C C14U C38U U61A U145C,-4.04
11,U7A,-2.18
12,U7C,-1.19
13,U7G,-2.22
14,C8U A60U,-3.79
15,U6G U56A G70C C85G A107U U144G,≤ -4.2
16,U6A G83C,-0.841
17,U7A A29U A49C U53A G84C U102C,≤ -4.2
18,U7C C38U C87A A122U,≤ -4.2
19,U7G U15G A21C A39G U45G G92U U127C,≤ -4.2
20,C8U C14G G50C A106U A110G,≤ -4.2
21,U7C A16C C35U C63U A121G G133C,≤ -4.2
22,C8A G86A,-3.76
23,U6G G11A,-0.786
24,C8U C57A,-2.69

row,Variant,polymerase ribozyme fitness (log ratio)
1,C8U C57U,-3.18
2,C8G G42A G59U A66U C87G U139G,≤ -4.2
3,U7G C35U U45A A52U G59A C93G G128A G141C,≤ -4.2
4,U7G A17C A24U A52G A64G C72G C85U G88U G92U C93G A119U,≤ -4.2
5,C8A A24G U61A C76G U78C G84U,≤ -4.2
6,U6A G50A A89U G92U A137G,-3.34
7,C8G C87U,-3.36
8,U6G G11C C14U C93A,≤ -4.2
9,C8G A41U U55G U56A G65A G70C U78A G81A C93A A122U,≤ -4.2
10,U7G G141C,-3.41
11,U7G C27A C93U A107G A150U,≤ -4.2
12,U6G A21C C75U U144A,-0.201
13,C8A C85G C103U A110G U134G C149G,≤ -4.2
14,C8A C14G C27U G46A C76A U109G C131U G143A,≤ -4.2
15,U7A G58C,-3.68
16,U6G G80A U82G G141U,0.34
17,U7G A60G,-2.7
18,U6G A17U A60G C93A A98U,-1.75
19,C8G U82G G84U C85U A107C,≤ -4.2
20,U7C A23U C87A A89G A115U U134A,≤ -4.2
21,C8G G25C U53G C63U C108A,≤ -4.2
22,U6A U44A C57G G70A G80A C85U G126U C131G,≤ -4.2
23,U6G C35U C76A C87U,-2.63
24,U7A C14G A29G C35G C36A G74A A91U C96A,≤ -4.2

row,Variant,polymerase ribozyme fitness (log ratio)
1,U7A A19U A49U G88U G100U,≤ -4.2
2,U6A C96U,-0.0433
3,U6C C14G A40C A52U A91U,≤ -4.2
4,C8A C114G A142C,≤ -4.2
5,U6G C8G,-3.65
6,U6G A20C A22G A26C C57A C87A A120G,≤ -4.2
7,U6G A17U A21U A49C C51U C79U G84A C114G,≤ -4.2
8,U6G A16U C18U G67C G88C,≤ -4.2
9,U6C C18U G59C A66U A73C U101G U139C U144A,≤ -4.2
10,C8U A30U C32U A64G C76A A97G A107U C108U A110G C116A,-4.12
11,C8A C14G,-3.51
12,U7G G34U A60U C93U A107U,≤ -4.2
13,C8U A17G A30U C95U G126A U148G,≤ -4.2
14,U6C C85G,-2.95
15,C8U C18A A20C A23C G62C A89G G136U,≤ -4.2
16,U6C U56G A64C G143U,≤ -4.2
17,C8A G34C U45A G50A U55A G74A A91G U102G G140C G141A,≤ -4.2
18,U6G A37G C38G C95U C116U G136U U139A U146C,≤ -4.2
19,U6C G42U U77G C87U A122U,≤ -4.2
20,U7A A21C U53G U56A G58C A60U C75A,≤ -4.2
21,U6C G83A C114U,-2.57
22,C8U C57U G71C G86A U104A,≤ -4.2
23,U6G G80C C149A,≤ -4.2
24,C8G A17G A21U A98G,-3.93

row,Variant,polymerase ribozyme fitness (log ratio)
1,U7C A23G A49U U56G G84U G86U A137U,≤ -4.2
2,U7G A20C U56A C72G A73G C85U C93G A98G A115U,≤ -4.2
3,U6G C54U G81A U135G,-3.31
4,U7A U45C G50U G83A A89U G94C A115U G141A,≤ -4.2
5,C8U A21C A28U U53A U77G G88U U145G A150C,≤ -4.2
6,U6C G70A C76G C87A G88A C116A,≤ -4.2
7,U7A A110C A138U,≤ -4.2
8,U7C G68U A73G U82A G92A U101C C116A A137C,≤ -4.2
9,U7A A26G A47G A66U G71C C131U U139G,≤ -4.2
10,C8U C27U A37C U55A C87G U111A C118G G124A,≤ -4.2
11,U6C A26C A28G,-3.84
12,C8U C10A A23C G59U G88U,≤ -4.2
13,U7G C8A G46C C63U G83C C85G C114G C149A,≤ -4.2
14,U7G A24C C43A A47G C75U C85A G86A C103G,≤ -4.2
15,U7C A21C U33G C43U G62A C87U,≤ -4.2
16,C8A A40U C57U U78A A119C,≤ -4.2
17,U7G A23G C32A A115G,≤ -4.2
18,U6A G50C C57A G83U C87A G94A,≤ -4.2
19,U6G A26C G83U A89U,-3.85
20,U6G A16G A29U C54U G86A U102G,≤ -4.2
21,C8U A52G,-3.63
22,C8A G83U U90G C118A,≤ -4.2
23,C8G A22U C85U C103U,≤ -4.2
